According to paper PMC4452869:

Tests used:
[1] = target: HIV-1 reverse transcriptase p66 (HIV-1); test: NMR (1H-13C HMQC of Ile delta-methyl-labelled protein, time-dependent); 45 µM [^13CH3-Ile]p66∆PL with 90 µM unlabeled p66 (twofold excess); 25 mM Tris-HCl-d11, pD 7.5, 100 mM KCl, 0.02% NaN3; successive 5.5-hr spectra; 35 °C; apparent time constants
[2] = target: HIV-1 reverse transcriptase p51 (HIV-1) (UniProt P03366); test: NMR (1H-13C HMQC of Ile delta-methyl-labelled protein); 150 µM [^13CH3-Ile]p51 in 25 mM Tris-HCl-d11 in D2O (pD 7.5), 800 mM KCl, 20 mM MgCl2, 0.02% NaN3 (high salt to stabilise the homodimer); monomer to dimer
[3] = target: HIV-1 reverse transcriptase p66 (HIV-1); test: SEC; HiLoad 26/60 superdex 200 column, p66 and p66∆PL run separately; 50 mM Tris–HCl, pH 8.0, 200 mM NaCl, 1 mM EDTA; 0.5 ml/min; 4 °C; absorbance at 280 nm; monomer to dimer
[4] = target: HIV-1 reverse transcriptase p66 (HIV-1); test: NMR (1H-13C HMQC of Ile delta-methyl-labelled protein, time-dependent); [^13CH3-Ile]p66 homodimerization; successive 5.5-hr spectra after dimerization conditions were introduced; 25 mM Tris-HCl-d11 in D2O, pD 7.51, 100 mM KCl, 0.02% NaN3; 35 °C; apparent time constants; monomer to dimer

## p66∆PL, p66 deletion mutant lacking palm loop residues 219–230 (enzyme)
[1]
  apparent time constant of growth of the dimer resonance (Ile47C): 8.8 h
  apparent time constant of monomer decay (Ile47M resonance): 9.1 h
  apparent time constant of monomer decay (Ile393M resonance): 9.3 h
  mean monomer decay time constant: 9 h
  percent dimerized (limit reached): 80 to 90%
  percent of the Ile47' intensity in the dimer species, initial spectra: 30 to 40%
  percent of the Ile47' intensity in the dimer species, limiting value: 80%

## HIV-1 reverse transcriptase p51 (from UniProt P03366 600-1039) (natural protein)
[2]
  percent dimer: 90%

## HIV-1 reverse transcriptase p66 (enzyme)
[3]
  dimer/monomer ratio (percent dimer): 75 % dimer
  stoichiometry N: 2
[4]
  apparent time constant of dimer formation (Ile382E resonance): 2.4 h
